Results from article PMC2425495 (Nucleic Acids Research, 2008).

T1: HutP (V51I) (Bacillus subtilis, UniProt P10943 1-148, V51I)
T1 sequence: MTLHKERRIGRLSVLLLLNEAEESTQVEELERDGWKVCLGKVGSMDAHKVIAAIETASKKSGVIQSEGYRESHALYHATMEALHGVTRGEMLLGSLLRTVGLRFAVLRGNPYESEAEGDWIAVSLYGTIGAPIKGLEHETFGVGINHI


Legend:
crystal structure = target: the molecule itself; test: crystal structure
HutP (V51I) = target: T1, HutP (V51I); test: EMSA

| Binder | stoichiometry N (crystal structure) | binding result (HutP (V51I)) |
| --- | --- | --- |
| HutP (Val 51 Ile mutant), anti-termination protein of the hut operon (natural protein, Bacillus subtilis) TLHKERRIGRLSVLLLLNEAEESTQVEELERDGWKVCLGKVGSMDAHKVIAAIETASKKSGVIQSEGYRESHALYHATMEALHGVTRGEMLLGSLLRTVGLRFAVLRGNPYESEAEGDWIAVSLYGTIGAPIKGLEHETFGVGINHI | 6 |  |
| UUUAGUUUUUAGUUUUUAGUU (ssRNA) [21-mer RNA] |  | binds |
